This is an account of results in US11833164B2, “Methods of treating Fabry disease in patients having a mutation in the GLA gene” (Amicus Therapeutics, Inc., priority 2019, dated 2023).

Substitutions are numbered along the chain they refer to. In names and notes the source's numbering stands.

The test system of this experiment is mutant form of α-Gal A expressed in HEK-293 cells. As to the kind of experiment: HEK assay (GLP HEK / Migalastat Amenability Assay): α-Gal A activity in lysates of transiently transfected HEK-293 cells incubated with or without 10 μM migalastat. In kind it is cell-based, human. The settings on record: for Absolute increase (% WT) / Relative increase: 10 μM migalastat versus baseline; for 10 μM migalastat α-Gal A activity: incubated 5 days with 10 μM migalastat; for 10 μM migalastat α-Gal A activity (% WT): with 10 μM migalastat, 5 days; for 10 μM migalastat α-Gal A activity (% WT) / Baseline α-Gal A activity (% WT): percentage of baseline wild-type α-Gal A activity; for Baseline α-Gal A activity (% WT): absence of migalastat. The method, boiled down:
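HEK-293 cells transiently transfected with mutant α-Gal A and incubated with or without 10 μM migalastat; lysate activity given as nmol free 4-MU released per mg protein per hour. Values are mean±SEM.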

The mark [1] stands for this setting: lysates of HEK-293 cells transiently transfected with the mutant form, incubated 5 days in absence of migalastat, mean ± SEM.
[2] abbreviates: lysates of HEK-293 cells transiently transfected with the mutant form, mean ± SEM.

B1: Q327H (protein)
chain: MQLRNPELHLGCALALRFLALVSWDIPGARALDNGLARTPTMGWLHWERFMCNLDCQEEPDSCISEKLFMEMAELMVSEGWKDAGYEYLCIDDCWMAPQRDSEGRLQADPQRFPHGIRQLANYVHSKGLKLGIYADVGNKTCAGFPGSFGYYDIDAQTFADWGVDLLKFDGCYCDSLENLADGYKHMSLALNRTGRSIVYSCEWPLYMWPFQKPNYTEIRQYCNHWRNFADIDDSWKSIKSILDWTSFNQERIVDVAGPGGWNDPDMLVIGNFGLSWNQQVTQMALWAIMAAPLFMSNDLRHISPQAKALLQDKDVIAINQDPLGKHGYQLRQGDNFEVWERPLSGLAWAVAMINRQEIGGPRSYTIAVASLGKGVACNPACFITQLLPVKRKLGFYEWTSRLRSHINPTGTVLLQLENTMQMSLKDLL
As to B1, the “Absolute increase (% WT)” value is 7.4 % WT. In addition, under setting [1], the “Baseline α-Gal A activity (nmol/mg/hr)” value is “BLD (“BLD” indicates that the mean α-Gal A activity was below the limit of detection (<142 nmol/mg/hr))”. Also, the “10 μM migalastat α-Gal A activity” value under setting [2] is 2197 ± 226 nmol/mg/h. Further, under “mean ± SEM”, the “10 μM migalastat α-Gal A activity (% WT)” value is reported as 7.4 ± 0.7 % WT.

B2: Y329H (protein)
chain: B1 chain with H327Q, Y329H
On to B2, for which the “Absolute increase (% WT)” value was 16.2 % WT and the Relative increase stood at 1.4. Further, for the setting “mean ± SEM”, the “Baseline α-Gal A activity (% WT)” value worked out at 47.2 ± 3.8 % WT and the “10 μM migalastat α-Gal A activity (% WT)” value is recorded as 63.4 ± 2.6 % WT. The “Baseline α-Gal A activity” value under setting [1] is 13757 ± 963 nmol/mg/h. The “10 μM migalastat α-Gal A activity” value under setting [2] was determined as 18672 ± 772 nmol/mg/h.

B3: Y329N (protein)
chain: B1 chain with H327Q, Y329N
For B3, the “Absolute increase (% WT)” value came out at 15.6 % WT and the Relative increase was determined as 1.7. Besides, for the setting “mean ± SEM”, the “Baseline α-Gal A activity (% WT)” value was determined as 21.8 ± 1.5 % WT and the “10 μM migalastat α-Gal A activity (% WT)” value came out at 37.4 ± 1.2 % WT. Also, under setting [1], the “Baseline α-Gal A activity” value worked out at 6448 ± 436 nmol/mg/h. For the same molecule, the “10 μM migalastat α-Gal A activity” value under setting [2] was found to be 11035 ± 429 nmol/mg/h.

B4: Y329F (protein)
chain: B1 chain with H327Q, Y329F
Turning to B4, the “Absolute increase (% WT)” value was 16.6 % WT and the Relative increase is 1.5. Under “mean ± SEM”, the “Baseline α-Gal A activity (% WT)” value was 30.6 ± 1.5 % WT and the “10 μM migalastat α-Gal A activity (% WT)” value is reported as 47.1 ± 2.8 % WT. The “Baseline α-Gal A activity” value under setting [1] amounted to 10368 ± 646 nmol/mg/h. In addition, under setting [2], the “10 μM migalastat α-Gal A activity” value was 15566 ± 603 nmol/mg/h.

B5: Y329C (protein)
chain: B1 chain with H327Q, Y329C
As to B5, the “Absolute increase (% WT)” value is recorded as 7.8 % WT and the Relative increase stood at 1.3. Where the note is “mean ± SEM”, the “Baseline α-Gal A activity (% WT)” value is 31.2 ± 1.5 % WT and the “10 μM migalastat α-Gal A activity (% WT)” value was 38.9 ± 1.6 % WT. For the same molecule, under setting [1], the “Baseline α-Gal A activity” value was 9148 ± 414 nmol/mg/h. Further, the “10 μM migalastat α-Gal A activity” value under setting [2] was found to be 11442 ± 480 nmol/mg/h.

B6: Q327P (protein)
chain: B1 chain with H327P
Take B6: the “Absolute increase (% WT)” value was 36.4 % WT and the Relative increase is reported as 2.4. For the setting “mean ± SEM”, the “Baseline α-Gal A activity (% WT)” value came to 26.2 ± 1.8 % WT and the “10 μM migalastat α-Gal A activity (% WT)” value came to 62.6 ± 3.1 % WT. Also, the “Baseline α-Gal A activity” value under setting [1] was 7775 ± 561 nmol/mg/h. For the same molecule, the “10 μM migalastat α-Gal A activity” value under setting [2] was determined as 18612 ± 1075 nmol/mg/h.

B7: Y329D (protein)
chain: B1 chain with H327Q, Y329D
On to B7, for which the “Absolute increase (% WT)” value is reported as 12.5 % WT and the Relative increase was found to be 3.9. In addition, where the note is “mean ± SEM”, the “Baseline α-Gal A activity (% WT)” value was 4.2 ± 0.2 % WT and the “10 μM migalastat α-Gal A activity (% WT)” value was 16.7 ± 0.6 % WT. Moreover, the “Baseline α-Gal A activity” value under setting [1] stood at 1249 ± 66 nmol/mg/h. For the same molecule, the “10 μM migalastat α-Gal A activity” value under setting [2] is 4917 ± 181 nmol/mg/h.
